Tested on: Escherichia coli TOP10
Test: shrunken log2 fold change of peptide-encoding DNA abundance (4.5 h post-induction vs induction); higher = less antimicrobial activity (less host growth inhibition)
Conditions: time post-induction: 4.5 h; library: site-saturation at positions 5, 18, 19, 20
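Further: peptides expressed intracellularly from a pBAD plasmid library in pooled LB shake-flask culture, induced with 0.3% L-arabinose, DNA abundance read by NGS, three biological replicates, DESeq2 with apeglm shrinkage.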

Sequence	shrunken log2 fold change
RRIRFRPPRLPRPRPRPSSQPRP	-0.458
RRIRERPPRLPRPRPRPFYCPRP	0.0826
RRIRTRPPRLPRPRPRPAIQPRP	-0.216
RRIRDRPPRLPRPRPRPMMRPRP	0.763
RRIRARPPRLPRPRPRPDWTPRP	0.0425
RRIRKRPPRLPRPRPRPQDNPRP	-0.0637
RRIRKRPPRLPRPRPRPHLFPRP	0.205
RRIRSRPPRLPRPRPRPLVLPRP	-0.233
RRIRVRPPRLPRPRPRPETGPRP	0.206
RRIRQRPPRLPRPRPRPANDPRP	-0.103
RRIRRRPPRLPRPRPRPVVKPRP	-0.0155
RRIRPRPPRLPRPRPRPNILPRP	-0.305
RRIRTRPPRLPRPRPRPMVRPRP	-0.0017
RRIRRRPPRLPRPRPRPKVLPRP	0.378
RRIRERPPRLPRPRPRPIPMPRP	-0.136
RRIRARPPRLPRPRPRPHEEPRP	0.793
RRIRNRPPRLPRPRPRPKYHPRP	-0.442
RRIRSRPPRLPRPRPRPVMQPRP	0.138
RRIRNRPPRLPRPRPRPGLPPRP	0.028
RRIRLRPPRLPRPRPRPIRCPRP	-0.0375
RRIRRRPPRLPRPRPRPAPRPRP	0.996
RRIRKRPPRLPRPRPRPGGGPRP	0.976
RRIRMRPPRLPRPRPRPVMYPRP	-0.0366
RRIRSRPPRLPRPRPRPPYGPRP	-0.401
RRIRMRPPRLPRPRPRPAYQPRP	-0.233

Sequence	shrunken log2 fold change
RRIRHRPPRLPRPRPRPEYPPRP	0.0664
RRIRCRPPRLPRPRPRPVNYPRP	-0.376
RRIRSRPPRLPRPRPRPFDCPRP	-0.277
RRIRFRPPRLPRPRPRPQHKPRP	-0.51
RRIRDRPPRLPRPRPRPVFSPRP	0.111
RRIRSRPPRLPRPRPRPDEMPRP	0.435
RRIRWRPPRLPRPRPRPGLHPRP	0.237
RRIRSRPPRLPRPRPRPFFPPRP	-0.196
RRIRSRPPRLPRPRPRPLCNPRP	-0.278
RRIRHRPPRLPRPRPRPICIPRP	-0.577
RRIRRRPPRLPRPRPRPQDPPRP	0.376
RRIRRRPPRLPRPRPRPKDPPRP	0.121
RRIRPRPPRLPRPRPRPFKAPRP	-0.0573
RRIRFRPPRLPRPRPRPYPTPRP	-0.324
RRIRYRPPRLPRPRPRPVVKPRP	-0.0513
RRIRYRPPRLPRPRPRPDFSPRP	0.0939
RRIRDRPPRLPRPRPRPFPNPRP	-0.503
RRIRDRPPRLPRPRPRPVDAPRP	-0.0229
RRIRVRPPRLPRPRPRPCRWPRP	0.182
RRIRARPPRLPRPRPRPFMNPRP	-0.0629
RRIRQRPPRLPRPRPRPLVPPRP	0.253
RRIRTRPPRLPRPRPRPMCDPRP	0.0157
RRIRHRPPRLPRPRPRPCDEPRP	-0.0443
RRIRKRPPRLPRPRPRPNKIPRP	0.0339
RRIRPRPPRLPRPRPRPQQCPRP	-0.462

Sequence	shrunken log2 fold change
RRIRTRPPRLPRPRPRPGVTPRP	0.276
RRIRGRPPRLPRPRPRPRKCPRP	0.666
RRIRCRPPRLPRPRPRPQEHPRP	-0.389
RRIRHRPPRLPRPRPRPKFPPRP	0.442
RRIRPRPPRLPRPRPRPYFEPRP	-0.633
RRIRVRPPRLPRPRPRPAEEPRP	0.113
RRIRVRPPRLPRPRPRPAWEPRP	0.162
RRIRDRPPRLPRPRPRPDAVPRP	0.585
RRIRFRPPRLPRPRPRPPGYPRP	0.0848
RRIRTRPPRLPRPRPRPWYKPRP	-0.0134
RRIRPRPPRLPRPRPRPPNKPRP	0.139
RRIRGRPPRLPRPRPRPSQVPRP	0.235
RRIRNRPPRLPRPRPRPGLGPRP	0.611
RRIRNRPPRLPRPRPRPQVPPRP	0.0184
RRIRDRPPRLPRPRPRPWDRPRP	-0.193
RRIRFRPPRLPRPRPRPEKNPRP	-0.0204
RRIRMRPPRLPRPRPRPPVLPRP	-0.122
RRIRGRPPRLPRPRPRPEWTPRP	1.27
RRIRTRPPRLPRPRPRPTPRPRP	0.674
RRIRQRPPRLPRPRPRPDHMPRP	0.0119
RRIRWRPPRLPRPRPRPLPSPRP	0.515
RRIRHRPPRLPRPRPRPLRGPRP	1.02
RRIRPRPPRLPRPRPRPHIIPRP	-0.19
RRIRDRPPRLPRPRPRPAIDPRP	0.336
RRIRARPPRLPRPRPRPCMFPRP	0.0445

Sequence	shrunken log2 fold change
RRIRSRPPRLPRPRPRPHYSPRP	-0.596
RRIRHRPPRLPRPRPRPQSSPRP	-0.0152
RRIRIRPPRLPRPRPRPDITPRP	-0.0982
RRIRSRPPRLPRPRPRPMYLPRP	-0.0356
RRIRGRPPRLPRPRPRPCANPRP	0.0504
RRIRLRPPRLPRPRPRPKFDPRP	-0.115
RRIRLRPPRLPRPRPRPEFCPRP	0.11
RRIRKRPPRLPRPRPRPGPGPRP	0.493
RRIRKRPPRLPRPRPRPEISPRP	-0.0587
RRIRQRPPRLPRPRPRPYNQPRP	-0.536
RRIRMRPPRLPRPRPRPMINPRP	-0.00763
RRIRTRPPRLPRPRPRPLTLPRP	-0.241
RRIRMRPPRLPRPRPRPMAMPRP	0.0319
RRIRWRPPRLPRPRPRPEAFPRP	0.488
RRIRARPPRLPRPRPRPWNWPRP	0.376
RRIRMRPPRLPRPRPRPMYRPRP	-0.0586
RRIRMRPPRLPRPRPRPNRDPRP	0.00277
RRIRYRPPRLPRPRPRPSLMPRP	-0.556
RRIRPRPPRLPRPRPRPKAKPRP	0.131
RRIRNRPPRLPRPRPRPIIGPRP	0.0444
RRIRERPPRLPRPRPRPGTLPRP	-0.251
RRIRVRPPRLPRPRPRPDHYPRP	-0.149
RRIRLRPPRLPRPRPRPSVCPRP	0.0879
RRIRHRPPRLPRPRPRPTTFPRP	0.0797
RRIRYRPPRLPRPRPRPHMYPRP	-0.327

Sequence	shrunken log2 fold change
RRIRHRPPRLPRPRPRPMIDPRP	-0.161
RRIRNRPPRLPRPRPRPYYWPRP	-0.367
RRIRVRPPRLPRPRPRPDTKPRP	-0.26
RRIRYRPPRLPRPRPRPGRTPRP	-0.121
RRIRQRPPRLPRPRPRPCFPPRP	0.121
RRIRVRPPRLPRPRPRPSSQPRP	-0.0546
RRIRNRPPRLPRPRPRPDVKPRP	-0.412
RRIRFRPPRLPRPRPRPITFPRP	-0.456
RRIRQRPPRLPRPRPRPPCFPRP	0.222
RRIRWRPPRLPRPRPRPFYFPRP	0.0389
RRIRIRPPRLPRPRPRPIDVPRP	0.00859
RRIRKRPPRLPRPRPRPAHAPRP	1.11
RRIRLRPPRLPRPRPRPTFGPRP	-0.0654
RRIRHRPPRLPRPRPRPMIPPRP	0.132
RRIRRRPPRLPRPRPRPRFQPRP	0.555
RRIRHRPPRLPRPRPRPIVLPRP	0.00695
RRIRKRPPRLPRPRPRPTAYPRP	0.185
RRIRVRPPRLPRPRPRPLWAPRP	0.081
RRIRRRPPRLPRPRPRPTQYPRP	0.571
RRIRDRPPRLPRPRPRPPQEPRP	0.559
RRIRFRPPRLPRPRPRPCTAPRP	-0.487
RRIRFRPPRLPRPRPRPDERPRP	-0.0426
RRIRKRPPRLPRPRPRPVRDPRP	0.48
RRIRHRPPRLPRPRPRPHKLPRP	-0.279
RRIRTRPPRLPRPRPRPGRYPRP	0.123

From the supplement of paper PMC9112550, “Optimization of the antimicrobial peptide Bac7 by deep mutational scanning” (BMC Biology, 2022)
